This note sets out measurements from PMC13208732 (2026).

In experiment [1] the target is T1, recombinant human placental growth factor 2 (PlGF-2) (human, UniProt P49763-3 19-170).
T1 chain: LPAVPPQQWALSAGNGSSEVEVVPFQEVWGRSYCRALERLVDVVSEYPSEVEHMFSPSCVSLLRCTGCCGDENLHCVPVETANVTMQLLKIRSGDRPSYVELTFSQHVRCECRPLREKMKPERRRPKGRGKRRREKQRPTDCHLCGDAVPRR
Nature of the experiment: ELISA; competition with biotinylated VEGFR1, no heparin.

Experiment [2] concerns the target T1, recombinant human placental growth …. Nature of the experiment: ELISA; competition with biotinylated VEGFR1, 1 ug/mL heparin. (In general: ELISA stands for enzyme-linked immunosorbent assay.)

B1: VEGFR1 domains 1 to 6 fused to a C-terminal Fc, biotinylated (Fc fusion)
chain: SKLKDPELSLKGTQHIMQAGQTLHLQCRGEAAHKWSLPEMVSKESERLSITKSACGRNGKQFCSTLTLNTAQANHTGFYSCKYLAVPTSKKKETESAIYIFISDTGRPFVEMYSEIPEIIHMTEGRELVIPCRVTSPNITVTLKKFPLDTLIPDGKRIIWDSRKGFIISNATYKEIGLLTCEATVNGHLYKTNYLTHRQTNTIIDVQISTPRPVKLLRGHTLVLNCTATTPLNTRVQMTWSYPDEKNKRASVRRRIDQSNSHANIFYSVLTIDKMQNKDKGLYTCRVRSGPSFKSVNTSVHIYDKAFITVKHRKQQVLETVAGKRSYRLSMKVKAFPSPEVVWLKDGLPATEKSARYLTRGYSLIIKDVTEEDAGNYTILLSIKQSNVFKNLTATLIVNVKPQIYEKAVSSFPDPALYPLGSRQILTCTAYGIPQPTIKWFWHPCNHNHSEARCDFCSNNEESFILDADSNMGNRIESITQRMAIIEGKNKMASTLVVADSRISGIYICIASNKVGTVGRNISFYITDVPNGFHVNLEKMPTEGEDLKLSCTVNKFLYRDVTWILLRTVNNRTMHYSISKQKMAITKEHSITLNLTIMNVSLQDSGTYACRARNVYTGEEILQKKEIT
modifications: biotin (EZ-Link Sulfo-NHS-Biotinylation Kit)
One may read the IC50 as the point on the concentration scale where inhibition reaches its midpoint. Consider B1, for which the results for the concentration for half-maximal inhibition (IC50) in experiment [1] and in experiment [2] were 142 nM and 75.1 nM, respectively.
